Assay results published in PMC7692627.

Biological target: His-P10 outer capsid protein (Rice black-streaked dwarf virus (RBSDV), UniProt D2Y4Q6 1-558)
Test: ELONA
Conditions: protein: recombinant; tags: N-terminal 6xHis (pET-15b)

B1: F17 (ssDNA)
DNA: TGACACCGTACCTGCTCTGCCGTAGTGATCCTCCTTAACAGTGACCTATAGATCGTTCGTCGTATTTGCTTTGACAATCCTTCTCAGATACTCTCCCGAAGCACGCCAGGGACTAT
Binder B1 has a binding signal of 7.55 A450 ratio P10/BSA.

B2: R13 (ssDNA)
DNA: ATAGTCCCTGGCGTGCTTGCATGCTTGGCCCTGCACCGCCTTCGGTCTTTCGCCGACCTCGTCGTTTATTCTATCGGGTTATAAGGATAATGCGGGGTAGAGCAGGTACGGTGTCA
B2 showed a binding signal of 1.26 A450 ratio P10/BSA.
